Laboratory results taken from patent publication US20180355050A1 (Ablynx, published 2018).
One block for each molecule: values may come before it.

Legend:
[1] = target: T1, human CD40L expressed on CHO cells (human, UniProt P29965 1-261); test: cell-based or functional assay
T1 sequence: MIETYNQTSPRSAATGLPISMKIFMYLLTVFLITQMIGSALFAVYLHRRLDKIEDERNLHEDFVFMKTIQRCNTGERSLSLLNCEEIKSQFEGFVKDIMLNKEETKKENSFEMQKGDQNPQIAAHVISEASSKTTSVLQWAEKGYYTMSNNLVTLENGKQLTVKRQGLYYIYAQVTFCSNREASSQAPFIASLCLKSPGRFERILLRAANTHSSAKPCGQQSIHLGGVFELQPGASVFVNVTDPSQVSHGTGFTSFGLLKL

[2] = target: T2, rat CD40L on transiently transfected HEK cells (rat, UniProt Q9Z2V2 1-260); test: FACS on HEK cells transiently transfected with rat CD40L
T2 construct: whole, on cells
T2 sequence (looked up): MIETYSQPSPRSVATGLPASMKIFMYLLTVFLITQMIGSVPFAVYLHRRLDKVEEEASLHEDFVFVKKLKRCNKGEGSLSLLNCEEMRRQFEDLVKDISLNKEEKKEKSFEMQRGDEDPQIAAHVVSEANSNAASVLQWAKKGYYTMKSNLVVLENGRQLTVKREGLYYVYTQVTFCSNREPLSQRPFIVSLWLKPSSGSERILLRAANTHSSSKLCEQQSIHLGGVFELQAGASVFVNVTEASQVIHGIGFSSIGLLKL
Description: Cross-reactivity to rat CD40L (UniProt accession numbers: Q9Z2V2 and Q9R254 (secondary)) was tested in FACS. Purified Nanobodies were analyzed on FACS for binding to rat CD40L. 2×10⁵ cells (transiently transfected rat CD40L HEK cells) were incubated with the purified Nanobodies in FACS buffer for 30 minutes at 4° C. Cells were washed 3×, re-suspended and incubated for 30 minutes at 4° C. Cells were washed again 3× and dead cells were stained with TOPRO3 (Molecular probes, T3605). Samples were analyzed on a FACSarray™ (BD Biosciences).

HVEM-L (TNF14) = HVEM-L (TNF14) (human, UniProt O43557 74-240, limits assumed); test: competition ELISA on coated human CD40L, fixed Nanobody, dilution series of competitor
Excerpt: (§1) The Basic Local Alignment Search Tool (BLAST) was used to identify the closest related protein in the human protein database. […] A fixed concentration of Nanobody was used together with a dilution series of competitor (TNFα, HVEM-L (TNF14) and hRANKL (TN F11); CD40L was used as positive control), starting at a 100-fold excess. The Nano bodies were detected with anti-FLAG-HRP (Sigma (A8592)).

human TNFα = human TNFα (human, UniProt P01375 77-233); test: as above
Excerpt: as §1

hRANKL (TNF11) = target: T3, hRANKL (TNF11) (human, UniProt O14788 140-317, limits assumed); test: as above
T3 sequence (looked up): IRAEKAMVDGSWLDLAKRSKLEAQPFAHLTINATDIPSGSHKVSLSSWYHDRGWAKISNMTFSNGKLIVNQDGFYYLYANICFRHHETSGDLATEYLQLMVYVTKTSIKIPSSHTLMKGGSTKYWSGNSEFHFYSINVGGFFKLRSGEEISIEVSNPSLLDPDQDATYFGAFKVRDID
Excerpt: as §1

recombinant human CD40L [3] = target: T4, recombinant human CD40L (human, UniProt P29965 108-261, limits assumed); test: FACS ligand competition, biotinylated human CD40L on cyno CD40 HEK cells
T4 construct: Bought soluble recombinant protein (R&D, HEK, 6420-CL/CF); also called hCD40L; human CD40L (HEK, R&D)
T4 sequence: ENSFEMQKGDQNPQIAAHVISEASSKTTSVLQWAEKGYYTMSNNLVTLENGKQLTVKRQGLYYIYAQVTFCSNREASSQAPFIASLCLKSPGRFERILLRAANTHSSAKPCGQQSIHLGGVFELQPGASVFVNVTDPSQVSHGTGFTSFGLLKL
Description: Cross-reactivity to cynomolgus CD40L (UniProt accession number: G7PG38) and rhesus CD40L (UniProt accession number: G7N4M5) was tested in a ligand competition assay. […] 2×10⁵ cells (transiently transfected HEK cells) were incubated with dilution series of the purified Nanobodies in FACS buffer for 30 minutes at 4° C. Cells were then washed 3× and finally resuspended in FACS buffer containing Streptavidin-PE (BD Pharmingen, #554061). This mixture was incubated for 30 minutes at 4° C. Cells were further handled as set out above.

[4] = target: T1, human CD40L expressed on CHO cells; test: cell-based or functional assay; remark: listed apart in the source
[5] = target: T1, human CD40L expressed on CHO cells; test: cell-based or functional assay; remark: listed apart in the source
recombinant human CD40L [6] = target: T4, recombinant human CD40L; test: FACS ligand competition, biotinylated human CD40L on human CD40 HEK cells
recombinant human CD40L [7] = target: T4, recombinant human CD40L; test: FACS ligand competition, biotinylated human CD40L on rhesus CD40 HEK cells
recombinant mouse CD40L = target: T5, recombinant mouse CD40L (mouse, UniProt P27548 112-260, limits assumed); test: SPR (ProteOn), immobilised recombinant mouse CD40L 3000-4000 RU; member of the lead panel
T5 construct: also called mouse CD40L (R&D NSO)
T5 sequence (looked up): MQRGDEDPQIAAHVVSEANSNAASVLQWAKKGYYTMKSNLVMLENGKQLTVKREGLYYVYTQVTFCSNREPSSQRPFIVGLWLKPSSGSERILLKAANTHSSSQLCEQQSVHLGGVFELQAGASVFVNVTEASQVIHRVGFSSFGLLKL
Description: To assess binding to mouse CD40L (UniProt accession number: P27548), ProteOn GLC Sensor Chips were coated with 3000-4000 RU of recombinant mouse CD40L (R&D NSO) in 10 mM acetate buffer pH5.5. Purified monovalent anti-CD40L Nanobodies in ProteOn running buffer: PBS/Tween (phosphate buffered saline, pH 7.4 with 0.005% Tween 20) were flown over the sensor chips at 100 nM. Processed curves were used for off-rate analysis based on the Langmuir dissociation model.

recombinant human CD40L [8] = target: T4, recombinant human CD40L; test: SPR off-rate (ProteOn, 37 °C), immobilised recombinant human CD40L
Description: All off-rates were determined on a ProteOn XPR36 instrument (Bio-Rad Laboratories, Inc.). […] 10-fold diluted periplasmic extracts of anti-CD40L Nanobodies expressing E. coli clones in running buffer ProteOn PBS/Tween (phosphate buffered saline, pH7.4 with 0.005% Tween 20) were flown over the sensor chips. Purified monovalent anti-CD40L Nanobodies were flown over the sensor chips at 100 nM. […] Data obtained was double referenced by Interspot subtraction as well as subtraction of a blank buffer injection. Processed curves were used for off-rate analysis based on the Langmuir dissociation model.
Affinity maturation was performed by screening error prone libraries generated from each parental Nanobody clone. In this approach, amino acid substitutions result from random introduction of mutations in the Nanobody encoding DNA via an error prone PCR. As a consequence, amino acid substitutions are found both in the CDRs and in the Framework Regions (FRs). 5 rounds of phage display selections were performed in solution using decreasing concentrations of recombinant CD40L (from 50 nM to 0.05 pM). Following phage display, individual Nanobodies were sequenced and off-rates were determined by SPR analysis (cf. Example 6.1.3).

Sequence of human TNFα (P01375 77-233 limits assumed): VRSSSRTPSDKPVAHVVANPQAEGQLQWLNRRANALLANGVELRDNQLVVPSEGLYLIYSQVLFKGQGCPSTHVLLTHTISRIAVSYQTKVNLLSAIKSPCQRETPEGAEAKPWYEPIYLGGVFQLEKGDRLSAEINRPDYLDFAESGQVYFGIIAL
Sequence of HVEM-L (TNF14) (O43557 74-240 limits assumed): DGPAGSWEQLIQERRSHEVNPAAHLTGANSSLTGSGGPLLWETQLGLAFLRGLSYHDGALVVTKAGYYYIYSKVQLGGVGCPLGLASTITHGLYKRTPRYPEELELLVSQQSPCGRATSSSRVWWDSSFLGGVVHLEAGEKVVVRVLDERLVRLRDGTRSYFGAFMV

B1: C0100028B02 (VHH)
VHH: EVQLVESGGGLVQPGGSLRLSCAASGFTLEYYAIGWFRQAPGKEREGVSCISSEGSTSYTDSVKGRFTISRDNAKNTVYLQMNSLKPEDTAVYYCATDPDRGFLGSSCDTQSHQYDYWGQGTLVTVSS
notes: Monovalent Nanobody produced in P. pastoris (pAX205); Detected with anti-FLAG reagents, but the tag of the monovalent form is not spelled out; also called C01000028B02
binding result [2]: no binding
binding result (HVEM-L (TNF14)): no binding (tested: competitor from a 100-fold excess)
binding result (human TNFα): no binding (tested: competitor from a 100-fold excess)
binding result (hRANKL (TNF11)): no binding (tested: competitor from a 100-fold excess)
% block (maximum observed effect) (recombinant human CD40L [3]): 75%
IC50 (recombinant human CD40L [3]): 4.7 nM
IC50 (M), B-cell proliferation assay, +HSA [4]: 2.81e-09 M
Average IC50 (M), B-cell proliferation assay [5]: 1.15e-09 M
% block (maximum observed effect) (recombinant human CD40L [6]): 71%
IC50 (recombinant human CD40L [6]): 4.43 nM
% block (maximum observed effect) (recombinant human CD40L [7]): 72%
IC50 (recombinant human CD40L [7]): 4.55 nM
binding result (recombinant mouse CD40L): no binding (tested: 100 nM)

B2: C0100028B02 L100aF (VHH, name in Kabat numbering)
VHH: EVQLVESGGGLVQPGGSLRLSCAASGFTLEYYAIGWFRQAPGKEREGVSCISSEGSTSYTDSVKGRFTISRDNAKNTVYLQMNSLKPEDTAVYYCATDPDRGFFGSSCDTQSHQYDYWGQGTLVTVSS
fold improved off-rate over parental C0100028B02 (recombinant human CD40L [8]): 1.3 fold

B3: C0100028B02 D101G (VHH, name in Kabat numbering)
VHH: EVQLVESGGGLVQPGGSLRLSCAASGFTLEYYAIGWFRQAPGKEREGVSCISSEGSTSYTDSVKGRFTISRDNAKNTVYLQMNSLKPEDTAVYYCATDPDRGFLGSSCDTQSHQYGYWGQGTLVTVSS
fold improved off-rate over parental C0100028B02 (recombinant human CD40L [8]): 1.3 fold

B4: C0100028B02 Y102F (VHH, name in Kabat numbering)
VHH: EVQLVESGGGLVQPGGSLRLSCAASGFTLEYYAIGWFRQAPGKEREGVSCISSEGSTSYTDSVKGRFTISRDNAKNTVYLQMNSLKPEDTAVYYCATDPDRGFLGSSCDTQSHQYDFWGQGTLVTVSS
fold improved off-rate over parental C0100028B02 (recombinant human CD40L [8]): 1.8 fold

B6: C0100046B03 (VHH)
VHH: EVQLVESGGGLVQAGGSLRLSCAASGRTPLNYHMAWFRQAPGKEREFVAAISSLLGSTDYSDSLKDRFTISRDNAKATLYLRMNNLKPEDTAVYYCAARETTHYSTSDRVNEMRHYDYWGQGTLVTVSS
notes: Monovalent Nanobody; tag of the monovalent form not spelled out; also called C01000046B03
binding result [2]: no binding
binding result (HVEM-L (TNF14)): no binding (tested: competitor from a 100-fold excess)
binding result (human TNFα): no binding (tested: competitor from a 100-fold excess)
binding result (hRANKL (TNF11)): no binding (tested: competitor from a 100-fold excess)
% block (maximum observed effect) (recombinant human CD40L [3]): 97%
IC50 (recombinant human CD40L [3]): 22.7 nM
IC50 (M), B-cell proliferation assay, +HSA [4]: 2.38e-09 M
Average IC50 (M), B-cell proliferation assay [5]: 2.18e-09 M
% block (maximum observed effect) (recombinant human CD40L [6]): 96%
IC50 (recombinant human CD40L [6]): 15.3 nM
% block (maximum observed effect) (recombinant human CD40L [7]): 100%
IC50 (recombinant human CD40L [7]): 28.2 nM
binding result (recombinant mouse CD40L): no binding (tested: 100 nM)

B7: C0100046B03 H100kA (VHH, name in Kabat numbering)
VHH: EVQLVESGGGLVQAGGSLRLSCAASGRTPLNYHMAWFRQAPGKEREFVAAISSLLGSTDYSDSLKDRFTISRDNAKATLYLRMNNLKPEDTAVYYCAARETTHYSTSDRVNEMRAYDYWGQGTLVTVSS
fold improved off-rate over parental C0100046B03 (recombinant human CD40L [8]): ~2 fold

B8: C0100046B03 H100kN (VHH, name in Kabat numbering)
VHH: EVQLVESGGGLVQAGGSLRLSCAASGRTPLNYHMAWFRQAPGKEREFVAAISSLLGSTDYSDSLKDRFTISRDNAKATLYLRMNNLKPEDTAVYYCAARETTHYSTSDRVNEMRNYDYWGQGTLVTVSS
notes: single mutation
fold improved off-rate over parental C0100046B03 (recombinant human CD40L [8]): 2.6 fold

Further lines, with some results ahead:

IC50 (pM), B-cell activation [1]: 101 pM
IC50 (pM), B-cell proliferation [1]: 864 pM
Molecule: CDP7657 (non-pegylated) (Fab)

binding result [2]: no binding
% block (maximum observed effect) (recombinant human CD40L [3]): 79%
IC50 (recombinant human CD40L [3]): 5.28 nM
IC50 (M), B-cell proliferation assay, +HSA [4]: 1.14e-09 M
Average IC50 (M), B-cell proliferation assay [5]: 9.71e-10 M
% block (maximum observed effect) (recombinant human CD40L [6]): 82%
IC50 (recombinant human CD40L [6]): 5.89 nM
% block (maximum observed effect) (recombinant human CD40L [7]): 83%
IC50 (recombinant human CD40L [7]): 5.41 nM
binding result (recombinant mouse CD40L): no binding (tested: 100 nM)
B5: C0100044B07 (VHH)
VHH: EVQLVESGGGLVQPGGRLRLSCAASGFTLDYYALAWFRQAPGKEREGVSCISSSEGSTDYADYADSVKGRFTISRDTAKNTVYLQMNNLKPEDTAVYYCATDETTFFSGSCTLSAATFGSWGQGTLVTVSS
notes: Monovalent Nanobody; tag of the monovalent form not spelled out; also called C01000044B07
binding result (HVEM-L (TNF14)): no binding (tested: competitor from a 100-fold excess)
binding result (human TNFα): no binding (tested: competitor from a 100-fold excess)
binding result (hRANKL (TNF11)): no binding (tested: competitor from a 100-fold excess)

fold improved off-rate over parental C0100046B03 (recombinant human CD40L [8]): 1.5 fold
B9: C0100046B03 Y100I (VHH, name in Kabat numbering)
VHH: EVQLVESGGGLVQAGGSLRLSCAASGRTPLNYHMAWFRQAPGKEREFVAAISSLLGSTDYSDSLKDRFTISRDNAKATLYLRMNNLKPEDTAVYYCAARETTHISTSDRVNEMRHYDYWGQGTLVTVSS

fold improved off-rate over parental C0100046B03 (recombinant human CD40L [8]): ~2 fold
B10: C0100046B03 H100kS (VHH, name in Kabat numbering)
VHH: EVQLVESGGGLVQAGGSLRLSCAASGRTPLNYHMAWFRQAPGKEREFVAAISSLLGSTDYSDSLKDRFTISRDNAKATLYLRMNNLKPEDTAVYYCAARETTHYSTSDRVNEMRSYDYWGQGTLVTVSS
